# Fewer inactive variants are shown than the library holds.
# Experiments:
# [1] = tested on: biotinyl-Val-oxazolone; assay: self-aminoacylation, catalytic enhancement (BVO) (fold over background); higher = more active; k-Seq, kA / k0A0; sequences stand for … in GGGAAUGGAUCCACAUCUACGAAUUC…UUCACUGCAGACUUGACGAAGCUG
# Method in brief: (§1)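 Working in 50 μL HEPES/NaCl/KCl/MgCl2/CaCl2 buffer with 5% acetonitrile at pH 6.9–7.0, mutagenized RNA pools (0.43 μM; 21-nt variable region) were reacted with 2–1250 μM of each biotinyl-aminoacyl-oxazolone for 90 minutes at room temperature. Streptavidin capture followed, with quantification by triplicate qPCR and Illumina sequencing. Catalytic enhancement is reported as median kA over the uncatalyzed rate, the low-activity peak of a bimodal Gaussian fit to the data.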
# [2] = tested on: biotinyl-Met-oxazolone; assay: self-aminoacylation, catalytic enhancement (BMO) (fold over background); higher = more active; k-Seq, kA / k0A0; sequences stand for … in GGGAAUGGAUCCACAUCUACGAAUUC…UUCACUGCAGACUUGACGAAGCUG
# Method in brief: as §1
# [3] = tested on: biotinyl-Trp-oxazolone; assay: self-aminoacylation, catalytic enhancement (BWO) (fold over background); higher = more active; k-Seq, kA / k0A0; sequences stand for … in GGGAAUGGAUCCACAUCUACGAAUUC…UUCACUGCAGACUUGACGAAGCUG
# Method in brief: as §1
# [4] = tested on: biotinyl-Leu-oxazolone; assay: self-aminoacylation, catalytic enhancement (BLO) (fold over background); higher = more active; k-Seq, kA / k0A0; sequences stand for … in GGGAAUGGAUCCACAUCUACGAAUUC…UUCACUGCAGACUUGACGAAGCUG
# Method in brief: as §1
# [5] = tested on: biotinyl-Ile-oxazolone; assay: self-aminoacylation, catalytic enhancement (BIO) (fold over background); higher = more active; k-Seq, kA / k0A0; sequences stand for … in GGGAAUGGAUCCACAUCUACGAAUUC…UUCACUGCAGACUUGACGAAGCUG
# Method in brief: as §1
# [6] = tested on: biotinyl-Phe-oxazolone; assay: self-aminoacylation, catalytic enhancement (BFO) (fold over background); higher = more active; k-Seq, kA / k0A0; sequences stand for … in GGGAAUGGAUCCACAUCUACGAAUUC…UUCACUGCAGACUUGACGAAGCUG
# Method in brief: as §1
Sequence,self-aminoacylation [1],self-aminoacylation [2],self-aminoacylation [3],self-aminoacylation [4],self-aminoacylation [5],self-aminoacylation [6]
CUACCUCAAAGAAUCGGUCUG [Fam1A.1 aminoacylation ribozyme variant],1.07,1.15,1.53,0.749,1.07,1.97
AAGUAUGCAAAUAGUCGCAAG [Fam3.1 aminoacylation ribozyme variant],1.05,1.06,1.76,1.02,1.17,1.55
GUUCACCUAGGUCAUCUGGUG [Fam2.2 aminoacylation ribozyme variant],1.71,2.62,2.12,2.56,1.71,8.36
AAGUCUGCUAAUAGUCGCAUG [Fam3.1 aminoacylation ribozyme variant],1.27,1.72,1.91,1.89,0.998,2.06
AUUCACCUCGGUCAUUGGGUG [Fam2.2 aminoacylation ribozyme variant],2.91,4.91,4.34,5.53,3.14,35.5
AUUCACAUAGGUCCUCGGGUG [Fam2.2 aminoacylation ribozyme variant],4.71,7.55,7.63,9.43,4.33,51.3
CUGCUUCACACAAUCGGUCUG [Fam1A.1 aminoacylation ribozyme variant],0.757,0.911,0.824,0.836,0.733,0.641
AAGUUUACUAAUAGUCGCAGG [Fam3.1 aminoacylation ribozyme variant],1.34,1.25,1.61,1.6,1.55,2.36
AUUUCCCUGGGCAUCGAGUGA [Fam2.1 aminoacylation ribozyme variant],3.21,5.56,6.79,6.7,3,32.6
CCUCACUUCAAGCAUUCGGUC [Fam1B.1 aminoacylation ribozyme variant],1.43,1.14,1.37,1.16,1.3,1.36
AUUACGCCGGUCAUCGAGUGA [Fam2.1 aminoacylation ribozyme variant],4.89,7.36,8.28,7.93,3.94,81.9
GUACUUCAAACAGUCGGUCUG [Fam1A.1 aminoacylation ribozyme variant],1.22,1.41,1.5,1.3,1.32,1.14
AUUCACCUAGGUCACCGGUUG [Fam2.2 aminoacylation ribozyme variant],1.7,1.62,1.29,1.55,1.92,7.82
AUUCCCCUGGUCAUCCAGUGA [Fam2.1 aminoacylation ribozyme variant],6.74,11.6,14.3,13.2,6.96,98.5
CGACAGUUCAAGCAAUCGGUC [Fam1B.1 aminoacylation ribozyme variant],1.53,1.19,2.43,1.45,1.48,2.42
CGACGCUUCAAGCAAUCGGUC [Fam1B.1 aminoacylation ribozyme variant],1.35,1.07,16.7,1.58,1.2,22.7
CAACACUUCAAUCAAUCGGUC [Fam1B.1 aminoacylation ribozyme variant],1.05,1.19,19.1,1.66,1.06,34.9
CAACACUUCAAGGAAUCGGUC [Fam1B.1 aminoacylation ribozyme variant],1.03,1.07,3.1,0.95,1.47,3.28
AUUCGCCUAGGUCAUCGGGGG [Fam2.2 aminoacylation ribozyme variant],3.72,5.82,3.54,7.51,4.36,30
AUUACCCCGCUCAUCGAGUGA [Fam2.1 aminoacylation ribozyme variant],1.73,1.89,1.17,1.99,1.16,6.93
AUUACCAUGUUCAUCGAGUGA [Fam2.1 aminoacylation ribozyme variant],3.79,7.52,9.17,7.2,4.04,36.4
UUUACCCUGGUCCUCGAGUGA [Fam2.1 aminoacylation ribozyme variant],2.58,4.26,4.06,3.67,1.96,17.8
AUGACCCUGAUCAUCGAGUGA [Fam2.1 aminoacylation ribozyme variant],2.84,5.56,6.06,5.85,2.73,19.5
AUUACCCUGGAUAUCGAGUGA [Fam2.1 aminoacylation ribozyme variant],4.88,10.5,12.9,11.1,4.43,67.3
AUUCCCCUGCUCAUCGAGUGA [Fam2.1 aminoacylation ribozyme variant],1.51,1.53,1.06,1.89,1.54,2.12
CUACUUCAAACAAUCGGUUUG [Fam1A.1 aminoacylation ribozyme variant],1.1,1.08,23.9,1.54,1.07,43.4

Sequence,self-aminoacylation [1],self-aminoacylation [2],self-aminoacylation [3],self-aminoacylation [4],self-aminoacylation [5],self-aminoacylation [6]
CCACACUUCAAGCAAUCCGUU [Fam1B.1 aminoacylation ribozyme variant],1.27,1.31,1.45,1.27,1.4,0.872
CCACACUUCAAGUAAUCAGUC [Fam1B.1 aminoacylation ribozyme variant],0.723,0.586,1.72,0.635,0.686,4.86
CUACUUCAAACAAUCAGUGUG [Fam1A.1 aminoacylation ribozyme variant],0.972,0.936,0.975,0.745,0.867,2.23
CUACUUCAAACAAUCGGUAUU [Fam1A.1 aminoacylation ribozyme variant],0.828,0.852,0.759,0.74,0.854,1.15
AUCACCCUGGACAUCGAGUGA [Fam2.1 aminoacylation ribozyme variant],4.56,9.05,8.8,10.4,3.98,68.7
AAGUUUGUUAAUGGUCGCAAG [Fam3.1 aminoacylation ribozyme variant],0.685,0.775,0.557,0.694,0.867,1.11
AUUACCCUGAUCAUCGACUGA [Fam2.1 aminoacylation ribozyme variant],0.876,0.78,0.666,0.777,0.928,1.16
AAGUUUGCUAAAAGUCGCAAG [Fam3.1 aminoacylation ribozyme variant],1.08,1.33,4.97,1.01,1.24,17.1
AAGUUUGCUAAUAGGCGCAAA [Fam3.1 aminoacylation ribozyme variant],1.1,1.63,1.48,1.74,1.46,1.74
AUAACCCUGGUCAUCAAGUGA [Fam2.1 aminoacylation ribozyme variant],1.27,2.3,2.39,2.24,1.45,2.73
AUUACCCUGUUCAACGAGUGA [Fam2.1 aminoacylation ribozyme variant],5.18,11.2,13.4,11.8,5.25,57
CUAUUUCAAGCAAUCGGUCUG [Fam1A.1 aminoacylation ribozyme variant],0.795,0.741,0.883,0.996,0.881,1.61
AUGUUUGCUAAUACUCGCAAG [Fam3.1 aminoacylation ribozyme variant],0.908,0.735,0.728,0.966,0.985,0.958
AUUCACCUAGGUUAUCGGGAG [Fam2.2 aminoacylation ribozyme variant],1.55,1.17,0.528,1.17,1.21,0.308
AUACACCUAGGUCUUCGGGUG [Fam2.2 aminoacylation ribozyme variant],3.04,2.71,2.64,3.72,2.7,23.2
AUUGGCCUGGUCAUCGAGUGA [Fam2.1 aminoacylation ribozyme variant],4.31,6.17,9.15,7.35,4.1,30.7
CCACACUUAAAGCAGUCGGUC [Fam1B.1 aminoacylation ribozyme variant],0.872,0.942,0.621,0.985,1.08,0.946
AAGUUUGCUUAUAGUCGCACG [Fam3.1 aminoacylation ribozyme variant],0.855,0.961,0.924,0.932,0.815,1.27
AUUCCCCUGGUCAUCGUGUGA [Fam2.1 aminoacylation ribozyme variant],3.33,5.03,5.65,5.32,2.66,37.6
CUACUUCAACCAGUCGGUCUG [Fam1A.1 aminoacylation ribozyme variant],0.833,0.662,0.564,0.788,0.712,0.542
AUUCACCUAGCUCAUCUGGUG [Fam2.2 aminoacylation ribozyme variant],1.05,1.3,0.967,1.52,1.17,5.43
AUUACCCUGGUCUUCGAGGGA [Fam2.1 aminoacylation ribozyme variant],1.35,1.15,1.31,1.54,1.5,0.74
AAGUUUGCAAAUAGUCGCUAG [Fam3.1 aminoacylation ribozyme variant],0.856,0.905,1.84,1,1.15,0.824
CUACUUGAAAAAAUCGGUCUG [Fam1A.1 aminoacylation ribozyme variant],0.822,0.781,0.84,0.801,0.862,0.472
AAGUUGGCUAAUAGUCGCAUG [Fam3.1 aminoacylation ribozyme variant],1.51,1.88,2,2.19,1.77,1.69

# From the supplement of paper PMC9233669
